Experimental data taken from patent US5861377, “Antistasin type serine protease inhibitors” (Novartis AG, dated 1999).
No end group written: not given here.

Tests used:
Assay in all cases: enzyme inhibition at equilibrium, steady state velocities fitted to the equation for tight binding inhibitors
bovine trypsin = bovine trypsin (bovine, UniProt P00760)
bovine chymotrypsin = bovine chymotrypsin (bovine, UniProt P00766)
human cathepsin G = human cathepsin G (human, UniProt P08311)
[1] = biological target: porcine tissue kallikrein (porcine, UniProt P00752)
human plasmin = human plasmin (human, UniProt P00747)

Ki (bovine trypsin): 7 nM
Ki (bovine chymotrypsin): 6.4 nM
Ki (human cathepsin G): 2.9 nM
Ki [1]: 13 nM
Ki (human plasmin): 138 nM
B1: hirustasin (Hirudo antistasin) (other)
chain: TQGNTCGGETCSAAQVCLKGKCVCNEVHCRIRCKYGLKKDENGCEYPCSCAKASQ
modifications: not fully specified; cysteine pairing not given here
